Measurements published in doi:10.1101/2020.02.25.965475.
Where a chain is given by its changes, count along the chain named.

Tests used:
Experiment in all cases: EMSA
FLAG-TEN = biological target: T1, FLAG-TEN (Cucumis sativus (cucumber), UniProt A0A0A0KSL1 1-395)
T1 sequence: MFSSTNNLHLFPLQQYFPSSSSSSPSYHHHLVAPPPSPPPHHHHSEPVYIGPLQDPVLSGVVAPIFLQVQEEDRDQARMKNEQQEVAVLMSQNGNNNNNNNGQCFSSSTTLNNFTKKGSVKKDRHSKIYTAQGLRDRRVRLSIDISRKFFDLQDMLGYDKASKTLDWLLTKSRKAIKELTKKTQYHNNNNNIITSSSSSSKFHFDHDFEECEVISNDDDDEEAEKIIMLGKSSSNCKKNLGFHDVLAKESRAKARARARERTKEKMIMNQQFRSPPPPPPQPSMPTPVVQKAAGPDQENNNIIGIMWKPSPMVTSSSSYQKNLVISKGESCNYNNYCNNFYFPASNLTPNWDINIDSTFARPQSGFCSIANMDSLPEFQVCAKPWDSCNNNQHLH

MBP-C = biological target: T2, MBP-C (Cucumis sativus (cucumber), UniProt A0A0A0KSL1 265-395)
T2 sequence: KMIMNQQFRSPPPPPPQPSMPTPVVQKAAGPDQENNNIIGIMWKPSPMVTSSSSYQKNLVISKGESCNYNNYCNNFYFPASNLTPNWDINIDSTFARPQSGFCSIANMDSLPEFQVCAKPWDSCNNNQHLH

FLAG-TEN N338Y = biological target: T3, FLAG-TEN N338Y (Cucumis sativus (cucumber), UniProt A0A0A0KSL1 1-395, N338Y)
T3 sequence: T1 sequence with N338Y

FLAG-ΔN121 (TCP+R+C130) = biological target: T4, FLAG-ΔN121 (TCP+R+C130) (Cucumis sativus (cucumber), UniProt A0A0A0KSL1 122-395, del1-121)
T4 sequence: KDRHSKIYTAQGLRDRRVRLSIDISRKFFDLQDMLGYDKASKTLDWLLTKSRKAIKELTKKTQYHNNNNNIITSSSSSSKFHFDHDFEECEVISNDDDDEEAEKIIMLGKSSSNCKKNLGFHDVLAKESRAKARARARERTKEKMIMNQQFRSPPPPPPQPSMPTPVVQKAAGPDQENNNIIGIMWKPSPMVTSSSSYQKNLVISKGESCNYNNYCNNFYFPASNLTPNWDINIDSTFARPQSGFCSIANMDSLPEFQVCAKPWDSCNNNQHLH

B1: CTCCGCC probe (dsDNA)
DNA 1: AAATTAAGAATATTTAACTCCGCCAATTCAAATATAAAGTATTAATT
DNA 2: AATTAATACTTTATATTTGAATTGGCGGAGTTAAATATTCTTAATTT
B1: binds (FLAG-TEN); no binding (MBP-C); no binding (FLAG-TEN N338Y). B1: binds (FLAG-ΔN121 (TCP+R+C130)).

B2: GGTCCC probe (GTGGTCCCAC) (dsDNA)
DNA 1: AAATTAAGAATATTGTGGTCCCACTCAAATATAAAGTATTAATT
DNA 2: AATTAATACTTTATATTTGAGTGGGACCACAATATTCTTAATTT
B2: binds (FLAG-TEN N338Y).
